Assay type in all cases: protein assay; call rule not given here
Substrate in data set [1]: OC[C@H]1O[C@H](O[C@H]2[C@@H](O)[C@H](O)[C@@H](CO)O[C@@H]2O)[C@@H](O)[C@@H](O)[C@@H]1O
The data set is described as follows: (§1) Activity of Bacteroides thetaiotaomicron GH92 alpha-mannosidase 3990 D644A mutant assessed as as mannose release after 16 hrs by HPLC relative to wild type enzyme.

Substrate in data set [2]: O=[N+]([O-])c1ccc(O[C@H]2O[C@H](CO)[C@@H](O)[C@H](O)[C@@H]2O)cc1
Described as §1.

Substrate in data set [3]: OC[C@H]1O[C@H](O[C@H]2[C@@H](O)[C@H](O)[C@@H](CO)O[C@@H]2O)[C@@H](O)[C@@H](O)[C@@H]1O
The data set is described as follows: (§2) Ratio of Kcat to Km for Bacteroides thetaiotaomicron GH92 alpha-mannosidase 3990 D644A mutant assessed as as mannose release after 16 hrs by HPLC relative to wild type enzyme.

Substrate in data set [4]: O=[N+]([O-])c1ccc(O[C@H]2O[C@H](CO)[C@@H](O)[C@H](O)[C@@H]2O)cc1
The description is as §2.

Substrate in data set [5]: O=[N+]([O-])c1ccc(O[C@H]2O[C@H](CO)[C@@H](O)[C@H](O)[C@@H]2O)c([N+](=O)[O-])c1
The description is as §2.

Substrate in data set [6]: OC[C@H]1O[C@H](O[C@H]2[C@@H](O)[C@H](O)[C@@H](CO)O[C@@H]2O)[C@@H](O)[C@@H](O)[C@@H]1O
The data set is described as follows: (§3) Ratio of Kcat to Km for Bacteroides thetaiotaomicron GH92 alpha-mannosidase 3990 E643A mutant assessed as as mannose release after 16 hrs by HPLC relative to wild type enzyme.

Substrate in data set [7]: O=[N+]([O-])c1ccc(O[C@H]2O[C@H](CO)[C@@H](O)[C@H](O)[C@@H]2O)cc1
Described as §3.

Substrate in data set [8]: O=[N+]([O-])c1ccc(O[C@H]2O[C@H](CO)[C@@H](O)[C@H](O)[C@@H]2O)c([N+](=O)[O-])c1
The description is as §3.

Substrate in data set [9]: OC[C@H]1O[C@H](O[C@H]2[C@@H](O)[C@H](O)[C@@H](CO)O[C@@H]2O)[C@@H](O)[C@@H](O)[C@@H]1O
Kind of data set: (§4) Activity of Bacteroides thetaiotaomicron GH92 alpha-mannosidase 3990 E643A mutant assessed as as mannose release after 16 hrs by HPLC relative to wild type enzyme.

Substrate in data set [10]: O=[N+]([O-])c1ccc(O[C@H]2O[C@H](CO)[C@@H](O)[C@H](O)[C@@H]2O)cc1
The data set is described as §4.

Consider two proteins from ChEMBL document CHEMBL1250451, “Mechanistic insights into a Ca2+-dependent family of alpha-mannosidases in a human gut symbiont” (Nat Chem Biol, 2010).

B1: Alpha-1,2-mannosidase (BT_3990) (Bacteroides thetaiotaomicron), Q8A0N1 D644A (protein)
chain: MKRLLLIACILNCTLLSQAKDWTQYVNPLMGSQSTFELSTGNTYPAIARPWGMNFWTPQTGKMGDGWQYTYTANKIRGFKQTHQPSPWINDYGQFSIMPIVGQPVFDEEKRASWFAHKGEVATPYYYKVYLAEHDIVTEMTPTERAVLFRFTFPENDHSYVVVDAFDKGSYIKIIPEENKIIGYTTRNSGGVPENFKNYFIIEFDKPFTYKATVENGNLQENVAEQTTDHAGAIIGFKTRKGEQVNARIASSFISFEQAAANMNELGKDNIEQLAQKGKDAWNQVLGKIEVEGGNLDQYRTFYSCLYRSLLFPRKFYELDANGQPIHYSPYNGQVLPGYMFTDTGFWDTFRCLFPLLNLMYPSVNKEMQEGLINTYLESGFFPEWASPGHRGCMVGNNSASILVDAYMKGVKVDDIKTLYEGLIHGTENVHPEVSSTGRLGYEYYNKLGYVPYDVKINENAARTLEYAYDDWCIYRLAKELKRPKKEISLFAKRAMNYKNLFDKESKLMRGRNEDGTFQSPFSPLKWGDAFTEGNSWHYTWSVFHDPQGLIDLMGGKEMFVTMMDSVFAVPPIFDDSYYGQVIHEIREMTVMNMGNYAHGNQPIQHMIYLYDYAGQPWKAQYWLRQVMDRMYTPGPDGYCGDEANGQTSAWYVFSALGFYPVCPGTDEYVMGTPLFKKATLHFENGNSLVIDAPNNSTENFYIDSMSFNGADHTKNYLRHEDLFKGGTIKVDMSNRPNLNRGTKEEDMPYSFSKE
One may read the Km as the concentration of substrate that gives half-maximal velocity. One may read the kcat as the number of substrate molecules converted per active site and unit of time at saturation. Broadly, the kcat/Km is the turnover number divided by the Michaelis constant. In the case of B1, the Km in data set [1] was 620 µM; in [2], “Not Active”. The kcat in [1] is 0.000783 s⁻¹; in [2] it was “Not Active”. The kcat/Km was 1.27 M⁻¹ s⁻¹ in data set [3], “Not Active” in data set [4] and 0.0167 M⁻¹ s⁻¹ in data set [5].

B2: Alpha-1,2-mannosidase (BT_3990) (Bacteroides thetaiotaomicron), Q8A0N1 E643A (protein)
chain: MKRLLLIACILNCTLLSQAKDWTQYVNPLMGSQSTFELSTGNTYPAIARPWGMNFWTPQTGKMGDGWQYTYTANKIRGFKQTHQPSPWINDYGQFSIMPIVGQPVFDEEKRASWFAHKGEVATPYYYKVYLAEHDIVTEMTPTERAVLFRFTFPENDHSYVVVDAFDKGSYIKIIPEENKIIGYTTRNSGGVPENFKNYFIIEFDKPFTYKATVENGNLQENVAEQTTDHAGAIIGFKTRKGEQVNARIASSFISFEQAAANMNELGKDNIEQLAQKGKDAWNQVLGKIEVEGGNLDQYRTFYSCLYRSLLFPRKFYELDANGQPIHYSPYNGQVLPGYMFTDTGFWDTFRCLFPLLNLMYPSVNKEMQEGLINTYLESGFFPEWASPGHRGCMVGNNSASILVDAYMKGVKVDDIKTLYEGLIHGTENVHPEVSSTGRLGYEYYNKLGYVPYDVKINENAARTLEYAYDDWCIYRLAKELKRPKKEISLFAKRAMNYKNLFDKESKLMRGRNEDGTFQSPFSPLKWGDAFTEGNSWHYTWSVFHDPQGLIDLMGGKEMFVTMMDSVFAVPPIFDDSYYGQVIHEIREMTVMNMGNYAHGNQPIQHMIYLYDYAGQPWKAQYWLRQVMDRMYTPGPDGYCGDADNGQTSAWYVFSALGFYPVCPGTDEYVMGTPLFKKATLHFENGNSLVIDAPNNSTENFYIDSMSFNGADHTKNYLRHEDLFKGGTIKVDMSNRPNLNRGTKEEDMPYSFSKE
For the protein B2, the kcat/Km in [6] was 13.2 M⁻¹ s⁻¹; in [7] it was “Not Active”; in data set [8], 0.25 M⁻¹ s⁻¹. In addition, the Km result in data set [9] and in data set [10] was “Not Active” throughout. For the same protein, the kcat result in [9] and in data set [10] was “Not Active” in each case.
